Measured values as given in US20190300590A1 (PROTAGONIST THERAPEUTICS, published 2019).
Bridges are numbered along the chain shown (N, C = ends). [ ]: non-standard residue; d: D form. 2Nal = N[C@@H](Cc1ccc2ccccc2c1)C(=O)O; AEF = NCCOc1ccc(C[C@H](N)C(=O)O)cc1; Pen = CC(C)(S)[C@H](N)C(=O)O; Aib = CC(C)(N)C(=O)O

T1: IL-23R on DB cells (human, UniProt Q5VWK5 24-629)
T1 sequence (looked up): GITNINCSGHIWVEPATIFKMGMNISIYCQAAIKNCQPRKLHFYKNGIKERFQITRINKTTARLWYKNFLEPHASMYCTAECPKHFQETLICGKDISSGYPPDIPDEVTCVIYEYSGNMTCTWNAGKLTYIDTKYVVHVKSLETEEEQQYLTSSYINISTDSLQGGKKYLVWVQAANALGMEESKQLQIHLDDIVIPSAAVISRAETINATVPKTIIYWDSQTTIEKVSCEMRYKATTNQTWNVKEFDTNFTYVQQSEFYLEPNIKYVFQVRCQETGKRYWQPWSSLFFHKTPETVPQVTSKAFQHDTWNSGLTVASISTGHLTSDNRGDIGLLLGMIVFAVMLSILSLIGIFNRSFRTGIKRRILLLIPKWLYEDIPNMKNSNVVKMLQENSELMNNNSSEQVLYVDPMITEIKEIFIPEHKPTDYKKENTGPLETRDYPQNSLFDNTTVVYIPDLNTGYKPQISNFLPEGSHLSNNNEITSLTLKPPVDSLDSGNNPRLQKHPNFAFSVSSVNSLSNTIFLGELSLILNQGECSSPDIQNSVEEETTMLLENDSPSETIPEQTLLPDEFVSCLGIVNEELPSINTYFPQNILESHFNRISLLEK

T2: IL23R_huFC (human, UniProt Q5VWK5 24-353)
T2 sequence (looked up): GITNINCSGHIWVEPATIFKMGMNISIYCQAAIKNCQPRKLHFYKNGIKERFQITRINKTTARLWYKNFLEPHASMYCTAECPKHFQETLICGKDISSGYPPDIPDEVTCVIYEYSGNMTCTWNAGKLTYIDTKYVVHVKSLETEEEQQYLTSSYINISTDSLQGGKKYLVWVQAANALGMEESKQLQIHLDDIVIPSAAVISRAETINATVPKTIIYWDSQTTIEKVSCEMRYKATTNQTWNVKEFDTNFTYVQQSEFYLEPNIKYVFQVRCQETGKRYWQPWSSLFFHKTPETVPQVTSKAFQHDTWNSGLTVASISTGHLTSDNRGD

B1: Ac-R-[Pen]-QTWQ-[Pen]-[Phe[4-(2-aminoethoxy)]-[2-Nal]-[Aib]-[Lys(Ac)]-NN-NH2 (peptide)
peptide: Ac-R[Pen]QTWQ[Pen][AEF][2Nal][Aib]K(Ac)NN-NH2
modifications: disulfide 2-7
SMILES: CC(=O)NCCCC[C@H](NC(=O)C(C)(C)NC(=O)[C@H](Cc1ccc2ccccc2c1)NC(=O)[C@H](Cc1ccc(OCCN)cc1)NC(=O)[C@H]1NC(=O)[C@H](CCC(N)=O)NC(=O)[C@H](Cc2c[nH]c3ccccc23)NC(=O)[C@H]([C@@H](C)O)NC(=O)[C@H](CCC(N)=O)NC(=O)[C@@H](NC(=O)[C@H](CCCNC(=N)N)NC(C)=O)C(C)(C)SSC1(C)C)C(=O)N[C@@H](CC(N)=O)C(=O)N[C@@H](CC(N)=O)C(N)=O
B2: Ac-(D)Phe-[Pen]-QTWQ-[Pen]-[Phe[4-(2-aminoethoxy)]-[2-Nal]-[Aib]-[Lys(Ac)]-NN-NH2 (peptide)
peptide: Ac-[dF][Pen]QTWQ[Pen][AEF][2Nal][Aib]K(Ac)NN-NH2
modifications: disulfide 2-7
SMILES: CC(=O)NCCCC[C@H](NC(=O)C(C)(C)NC(=O)[C@H](Cc1ccc2ccccc2c1)NC(=O)[C@H](Cc1ccc(OCCN)cc1)NC(=O)[C@H]1NC(=O)[C@H](CCC(N)=O)NC(=O)[C@H](Cc2c[nH]c3ccccc23)NC(=O)[C@H]([C@@H](C)O)NC(=O)[C@H](CCC(N)=O)NC(=O)[C@@H](NC(=O)[C@@H](Cc2ccccc2)NC(C)=O)C(C)(C)SSC1(C)C)C(=O)N[C@@H](CC(N)=O)C(=O)N[C@@H](CC(N)=O)C(N)=O

Experiments:
IL-23R on DB cells = target: T1, IL-23R on DB cells; assay: cell-based or functional assay
IL23R_huFC = target: T2, IL23R_huFC; assay: IL23-IL23R competitive ELISA

Binder	pStat3 HTRF IC50 (IL-23R on DB cells) [nM]	IC50 (IL23R_huFC) [nM]
B1	< 10	
XNTWQXFXXKNA (Ac; Pen-Pen disulfide; Phe(4-OMe); 2-Nal; Aib; Lys(Ac); NH2) [Ac-[Pen]-NTWQ-[Pen]-[Phe(4-OMe)]-[2-Nal]-[Aib]-[Lys(Ac)]-NA-NH2]	< 10	
XNTWQXFXXKNQ (Ac; Pen-Pen disulfide; Phe(4-OMe); 2-Nal; Aib; Lys(Ac); NH2) [Ac-[Pen]-NTWQ-[Pen]-[Phe(4-OMe)]-[2-Nal]-[Aib]-[Lys(Ac)]-NQ-NH2]	< 10	
Ac-CADWVCYWHEHSERVG-NH2 (disulfide 1-6 (inferred)) [Ac-CADWVCYWHEHSERVG-NH2]		500 to 1000
H-CSDWVCYWHVYG-NH2 (disulfide 1-6 (inferred)) [Hy-CSDWVCYWHVYG-NH2]		500 to 1000
XXQTWQXFXXKNN (Ac; 2-Nal twice; Pen-Pen disulfide; Phe[4-(2-aminoethoxy)]; Aib; Lys(Ac); NH2) [Ac-[2-Nal]-[Pen]-QTWQ-[Pen]-[Phe[4-(2-aminoethoxy)]-[2-Nal]-[Aib]-[Lys(Ac)]-NN-NH2]	< 10	
H-CADWVCYWHTFG-NH2 (disulfide 1-6 (inferred)) [Hy-CADWVCYWHTFG-NH2]		500 to 1000
CADWVCYXHTFG ([2-Nal]; -NH2; disulfide) [Hy-CADWVCY-[2-Nal]-HTFG-NH2]		500 to 1000
XNTWQXFXLKNA (Ac; Pen-Pen disulfide; Phe[4-(2-aminoethoxy)]; 2-Nal; hLeu; Lys(Ac); βAla; NH2) [Ac-[Pen]-NTWQ-[Pen]-[Phe[4-(2-aminoethoxy)]-[2-Nal]-[hLeu]-[Lys(Ac)]-N-[βAla]-NH2]	< 10	
XNTWQXFXXKNN (Ac; Pen-Pen disulfide; Phe(4-OMe); 2-Nal; Aib; Lys(Ac); NH2) [Ac-[Pen]-NTWQ-[Pen]-[Phe(4-OMe)]-[2-Nal]-[Aib]-[Lys(Ac)]-NN-NH2]	< 10	
XNTWQXFXXKNA (Ac; Pen-Pen disulfide; Phe[4-(2-aminoethoxy)]; 2-Nal; Aib; Lys(Ac); NH2) [Ac-[Pen]-NTWQ-[Pen]-[Phe[4-(2-aminoethoxy)]-[2-Nal]-[Aib]-[Lys(Ac)]-NA-NH2]	< 10	
XNTWQXFXXKNQ (Ac; Pen-Pen disulfide; Phe[4-(2-aminoethoxy)]; 2-Nal; Aib; Lys(Ac); NH2) [Ac-[Pen]-NTWQ-[Pen]-[Phe[4-(2-aminoethoxy)]-[2-Nal]-[Aib]-[Lys(Ac)]-NQ-NH2]	< 10	
XNTWQXFXXENN (Ac; Pen-Pen disulfide; Phe(4-OMe); 2-Nal; Aib; NH2) [Ac-[Pen]-NTWQ-[Pen]-[Phe(4-OMe)]-[2-Nal]-[Aib]-ENN-NH2]	< 10	
B2	< 10	
CADWVCYXHTFG ([1-Nal]; -NH2; disulfide) [Hy-CADWVCY-[1-Nal]-HTFG-NH2]		500 to 1000
H-CTTWKCYWHQYG-NH2 (disulfide 1-6 (inferred)) [Hy-CTTWKCYWHQYG-NH2]		500 to 1000
H-CRTWTCYWHVYG-NH2 (disulfide 1-6 (inferred)) [Hy-CRTWTCYWHVYG-NH2]		500 to 1000
